# Laboratory results as given in patent US20150232510A1.
# Molecular target: Angiotensin Converting Enzyme, from rabbit lung (SIGMA) (rabbit) (UniProt P12822)
# Assay: cell-based or functional assay
# Chain of UniProt P12822 (P12822 34-1310 limits assumed): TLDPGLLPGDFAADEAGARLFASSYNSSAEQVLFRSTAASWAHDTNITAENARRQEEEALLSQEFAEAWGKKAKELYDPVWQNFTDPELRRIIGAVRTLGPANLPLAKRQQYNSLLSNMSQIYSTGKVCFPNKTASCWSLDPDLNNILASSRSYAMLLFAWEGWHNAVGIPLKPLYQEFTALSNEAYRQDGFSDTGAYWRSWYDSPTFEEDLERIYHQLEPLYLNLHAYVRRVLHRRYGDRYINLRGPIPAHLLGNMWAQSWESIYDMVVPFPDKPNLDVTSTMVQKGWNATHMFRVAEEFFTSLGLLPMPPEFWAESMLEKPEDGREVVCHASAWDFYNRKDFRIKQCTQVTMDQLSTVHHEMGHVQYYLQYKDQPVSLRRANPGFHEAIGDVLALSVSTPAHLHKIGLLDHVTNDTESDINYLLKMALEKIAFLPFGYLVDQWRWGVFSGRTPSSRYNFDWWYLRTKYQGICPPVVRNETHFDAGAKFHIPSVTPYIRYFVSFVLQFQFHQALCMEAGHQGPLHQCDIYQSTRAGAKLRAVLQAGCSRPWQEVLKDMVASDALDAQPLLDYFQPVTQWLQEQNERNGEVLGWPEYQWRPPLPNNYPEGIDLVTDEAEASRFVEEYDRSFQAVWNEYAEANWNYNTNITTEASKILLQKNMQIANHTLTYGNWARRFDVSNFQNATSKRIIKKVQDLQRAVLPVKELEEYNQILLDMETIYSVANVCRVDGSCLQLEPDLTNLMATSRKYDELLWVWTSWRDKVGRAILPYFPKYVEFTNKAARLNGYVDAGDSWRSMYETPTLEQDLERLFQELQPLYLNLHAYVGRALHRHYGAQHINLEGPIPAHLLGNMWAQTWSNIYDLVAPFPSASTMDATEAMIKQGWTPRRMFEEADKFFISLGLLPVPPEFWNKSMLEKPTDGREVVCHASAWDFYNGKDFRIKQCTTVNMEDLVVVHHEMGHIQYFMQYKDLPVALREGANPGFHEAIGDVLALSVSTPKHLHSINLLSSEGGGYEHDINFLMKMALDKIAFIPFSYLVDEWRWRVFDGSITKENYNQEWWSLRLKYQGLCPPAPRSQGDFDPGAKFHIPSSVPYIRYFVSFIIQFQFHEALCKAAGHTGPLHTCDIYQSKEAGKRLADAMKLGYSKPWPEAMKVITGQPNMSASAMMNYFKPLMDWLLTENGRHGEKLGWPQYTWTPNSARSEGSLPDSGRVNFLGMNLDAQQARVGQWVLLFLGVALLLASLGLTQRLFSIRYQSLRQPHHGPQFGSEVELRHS
row,"ACE inhibiting activity, 50% inhibition concentration [µg/mL]",Substance
1,24.8,Val-Pro-Ala (peptide)
2,132,Val-Pro-Lys (peptide)

# Molecular target: Recombinant Human DPPIV/CD26 (R&D Systems, Inc.) (human) (UniProt P27487)
# Assay: cell-based or functional assay
# Chain of UniProt P27487 (P27487 29-766 limits assumed): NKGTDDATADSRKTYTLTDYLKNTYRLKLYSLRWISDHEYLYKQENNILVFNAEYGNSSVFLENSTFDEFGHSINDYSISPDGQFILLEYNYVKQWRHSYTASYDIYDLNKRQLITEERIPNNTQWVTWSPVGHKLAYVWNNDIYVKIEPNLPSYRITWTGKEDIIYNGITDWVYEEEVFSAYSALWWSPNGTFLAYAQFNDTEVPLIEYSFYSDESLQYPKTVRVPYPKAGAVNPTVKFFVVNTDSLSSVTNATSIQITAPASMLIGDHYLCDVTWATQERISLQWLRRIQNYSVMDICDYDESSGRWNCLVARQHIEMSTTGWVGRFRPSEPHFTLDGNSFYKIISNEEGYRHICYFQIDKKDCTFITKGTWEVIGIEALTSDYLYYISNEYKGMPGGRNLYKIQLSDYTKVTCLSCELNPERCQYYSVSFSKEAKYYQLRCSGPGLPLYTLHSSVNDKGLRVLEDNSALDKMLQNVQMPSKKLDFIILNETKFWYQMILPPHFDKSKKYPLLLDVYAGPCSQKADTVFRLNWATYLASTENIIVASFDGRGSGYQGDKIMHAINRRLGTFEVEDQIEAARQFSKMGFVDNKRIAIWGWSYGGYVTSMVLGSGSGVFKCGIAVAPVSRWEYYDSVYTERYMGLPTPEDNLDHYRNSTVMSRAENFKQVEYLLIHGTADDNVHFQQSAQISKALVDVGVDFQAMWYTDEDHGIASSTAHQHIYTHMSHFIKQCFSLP
Substance,DPP-4 inhibiting activity IC50(µg/ml) [µg/mL],concentration for 50% inhibition of the enzymatic activity (dipeptidyl peptidase-IV inhibiting ability of HPLC Fraction 2) [µg/mL]
Val-Pro-Ala (peptide),1.9,2
Val-Pro-Gln (peptide),2.6,
LY (peptide),486,
Val-Pro-Val (peptide),1,
Val-Pro-Asn (peptide),5.7,
Val-Pro-Pro (peptide),> 2000,

# Now from value to substance:
DPP-4 inhibiting activity IC50(µg/ml) [µg/mL],concentration for 50% inhibition of the enzymatic activity (dipeptidyl peptidase-IV inhibiting ability of HPLC Fraction 2) [µg/mL],Substance
10.4,,Val-Pro-Lys (peptide)
1340,,Ile-Pro-Pro (peptide)
5.17,,Val-Pro-Ser (peptide)
3.4,,Val-Pro-Gly (peptide)
7.15,,Val-Pro-Tyr (peptide)
